Experimental data reported in patent US20210388087A1 (Chugai, published 2021).
Where a chain is given by its changes, count along the chain named.

B1: GLS3000 R24T (antibody, name in Kabat numbering, V domains shown)
VH: QVQLVESGGGVVQPGRSLRLSCAASGFTFSNAWMHWVRQAPGKGLEWVAQIKAKSNNYATYYAESVKGRFTISRDDSKNSLYLQMNSLKTEDTAVYYCRYVHYGAYYGVDAWGQGTTVTVSS
VL: DIVMTQSPLSLPVTPGEPASISCTSSQSLVHSNRNTYLHWYQQKPGQAPRLLIYKVSNRFSGVPDRFSGSGSGTDFTLKISRVEAEDVGVYYCGQGTQVPYTFGQGTKLEIK
notes: one-arm IgG as m2
B2: GLS3000 R29T (antibody, name in Kabat numbering, V domains shown)
VH: B1 VH
VL: B1 VL with T24R, R34T
notes: one-arm IgG as m2
B3: GLS3000 R29V (antibody, name in Kabat numbering, V domains shown)
VH: B1 VH
VL: B1 VL with T24R, R34V
notes: one-arm IgG as m2
B4: GLS3000 R29L (antibody, name in Kabat numbering, V domains shown)
VH: B1 VH
VL: B1 VL with T24R, R34L
notes: one-arm IgG as m2
B5: GLS3000 R29P (antibody, name in Kabat numbering, V domains shown)
VH: B1 VH
VL: B1 VL with T24R, R34P
notes: one-arm IgG as m2
B6: GLS3000 R54A (antibody, name in Kabat numbering, V domains shown)
VH: B1 VH
VL: B1 VL with T24R, R59A
notes: one-arm IgG as m2
B7: GLS3000 S25P (antibody, name in Kabat numbering, V domains shown)
VH: B1 VH
VL: B1 VL with T24R, S25P
notes: one-arm IgG as m2
B8: GLS3000 R29A (antibody, name in Kabat numbering, V domains shown)
VH: B1 VH
VL: B1 VL with T24R, R34A
notes: one-arm IgG as m2
B9: GLS3000 R54G (antibody, name in Kabat numbering, V domains shown)
VH: B1 VH
VL: B1 VL with T24R, R59G
notes: one-arm IgG as m2
B10: GLS3000 S25L (antibody, name in Kabat numbering, V domains shown)
VH: B1 VH
VL: B1 VL with T24R, S25L
notes: one-arm IgG as m2
B11: GLS3000 S25V (antibody, name in Kabat numbering, V domains shown)
VH: B1 VH
VL: B1 VL with T24R, S25V
notes: one-arm IgG as m2
B12: GLS3000 R54T (antibody, name in Kabat numbering, V domains shown)
VH: B1 VH
VL: B1 VL with T24R, R59T
notes: one-arm IgG as m2
B13: GLS3000 R54D (antibody, name in Kabat numbering, V domains shown)
VH: B1 VH
VL: B1 VL with T24R, R59D
notes: one-arm IgG as m2
B14: GLS3000 R54P (antibody, name in Kabat numbering, V domains shown)
VH: B1 VH
VL: B1 VL with T24R, R59P
notes: one-arm IgG as m2
B15: GLS3000 S25A (antibody, name in Kabat numbering, V domains shown)
VH: B1 VH
VL: B1 VL with T24R, S25A
notes: one-arm IgG as m2
B16: GLS3000 R54E (antibody, name in Kabat numbering, V domains shown)
VH: B1 VH
VL: B1 VL with T24R, R59E
notes: one-arm IgG as m2
B17: GLS3000 S25T (antibody, name in Kabat numbering, V domains shown)
VH: B1 VH
VL: B1 VL with T24R, S25T
notes: one-arm IgG as m2
B18: GLS3000 R54S (antibody, name in Kabat numbering, V domains shown)
VH: B1 VH
VL: B1 VL with T24R, R59S
notes: one-arm IgG as m2
B19: GLS3000 S25E (antibody, name in Kabat numbering, V domains shown)
VH: B1 VH
VL: B1 VL with T24R, S25E
notes: one-arm IgG as m2
B20: GLS3000 R29D (antibody, name in Kabat numbering, V domains shown)
VH: B1 VH
VL: B1 VL with T24R, R34D
notes: one-arm IgG as m2
B21: GLS3000 R29I (antibody, name in Kabat numbering, V domains shown)
VH: B1 VH
VL: B1 VL with T24R, R34I
notes: one-arm IgG as m2
B22: GLS3000 R29Y (antibody, name in Kabat numbering, V domains shown)
VH: B1 VH
VL: B1 VL with T24R, R34Y
notes: one-arm IgG as m2
B23: GLS3000 S25I (antibody, name in Kabat numbering, V domains shown)
VH: B1 VH
VL: B1 VL with T24R, S25I
notes: one-arm IgG as m2
B24: GLS3000 R54Q (antibody, name in Kabat numbering, V domains shown)
VH: B1 VH
VL: B1 VL with T24R, R59Q
notes: one-arm IgG as m2
B25: GLS3000 R24Y (antibody, name in Kabat numbering, V domains shown)
VH: B1 VH
VL: B1 VL with T24Y
notes: one-arm IgG as m2
B26: GLS3000 S25D (antibody, name in Kabat numbering, V domains shown)
VH: B1 VH
VL: B1 VL with T24R, S25D
notes: one-arm IgG as m2
B27: GLS3000 R77S (antibody, name in Kabat numbering, V domains shown)
VH: B1 VH
VL: B1 VL with T24R, R82S
notes: one-arm IgG as m2
B28: GLS3000 R54W (antibody, name in Kabat numbering, V domains shown)
VH: B1 VH
VL: B1 VL with T24R, R59W
notes: one-arm IgG as m2
B29: GLS3000 R29S (antibody, name in Kabat numbering, V domains shown)
VH: B1 VH
VL: B1 VL with T24R, R34S
notes: one-arm IgG as m2
B30: GLS3000 S25M (antibody, name in Kabat numbering, V domains shown)
VH: B1 VH
VL: B1 VL with T24R, S25M
notes: one-arm IgG as m2
B31: GLS3000 R29G (antibody, name in Kabat numbering, V domains shown)
VH: B1 VH
VL: B1 VL with T24R, R34G
notes: one-arm IgG as m2

Each binder was assayed against T1, CD3 epsilon homodimer protein (UniProt P07766 23-126) (assay: SPR Biacore T200, CD3e homodimer on chip, vs unaltered GLS3000 antibody).
T1 construct: also called CD3 (CD3 epsilon)
T1 sequence (P07766 23-126): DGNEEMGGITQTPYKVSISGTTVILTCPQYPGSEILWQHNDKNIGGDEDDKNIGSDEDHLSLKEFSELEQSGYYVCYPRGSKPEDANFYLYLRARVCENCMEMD

| Binder | ratio of amounts bound (Z=Y/X) |
| --- | --- |
| B1 | 0.88 |
| B2 | 0.63 |
| B3 | 0.34 |
| B4 | 0.56 |
| B5 | 0.31 |
| B6 | 0.69 |
| B7 | 1.01 |
| B8 | 0.63 |
| B9 | 0.67 |
| B10 | 0.24 |
| B11 | 0.73 |
| B12 | 0.65 |
| B13 | 0.36 |
| B14 | 0.84 |
| B15 | 0.92 |
| B16 | 0.58 |

| Binder | ratio of amounts bound (Z=Y/X) |
| --- | --- |
| B17 | 0.83 |
| B18 | 0.79 |
| B19 | 0.21 |
| B20 | 0.41 |
| B21 | 0.37 |
| B22 | 0.69 |
| B23 | 0.53 |
| B24 | 0.68 |
| B25 | 0.87 |
| B26 | 0.18 |
| B27 | 0.92 |
| B28 | 0.78 |
| B29 | 0.68 |
| B30 | 0.31 |
| B31 | 0.67 |
